Assay results: paper PMC5717138

Tests used:
[1] = GFP-Polη foci, U2OS, 24 h after cisplatin; details: glycan lost; control: wild type
[2] = chromatin-fraction IP, anti-ubiquitin/K48 blot; details: glycan lost; control: wild type
[3] = DNA fiber assay, no cisplatin; details: glycan lost; control: wild type
[4] = RPA foci, complemented XP30RO, 4 and 24 h post-UV; details: glycan lost; control: wild type
[5] = RPA2 foci-positive cells, 24 h recovery after cisplatin; details: glycan lost; control: wild type
[6] = DNA fiber assay after cisplatin; details: glycan lost; control: wild type
[7] = GFP-Polη foci, U2OS, 8 h post-UVC; details: glycan lost; control: wild type
[8] = denaturing Flag IP, anti-HA-Ub and anti-K48-Ub blot; details: glycan lost; control: wild type
[9] = chromatin fractionation, chromatin-bound Polη 24 h post-UV; details: glycan lost; control: wild type
[10] = unreplicated CPDs in ssDNA, complemented XP30RO, 4 h post-UV; details: glycan lost; control: wild type
[11] = GFP-Polη foci, U2OS, 34 and 46 h after cisplatin removal; details: glycan lost; control: wild type
[12] = supF shuttle vector assay, complemented XP30RO; details: glycan lost; control: wild type
[13] = GFP-Polη foci, U2OS, 24 h post-UVC; details: glycan lost; control: wild type
[14] = quantitative MS of di-Gly peptides; details: glycan lost; control: wild type
[15] = in vitro ubiquitination of E. coli-purified His-Polη; details: control: WT His-Polη without OGT co-expression

B1: DNA polymerase η (Polη): T457A (protein)
parent chain: MATGQDRVVALVDMDCFFVQVEQRQNPHLRNKPCAVVQYKSWKGGGIIAVSYEARAFGVTRSMWADDAKKLCPDLLLAQVRESRGKANLTKYREASVEVMEIMSRFAVIERASIDEAYVDLTSAVQERLQKLQGQPISADLLPSTYIEGLPQGPTTAEETVQKEGMRKQGLFQWLDSLQIDNLTSPDLQLTVGAVIVEEMRAAIERETGFQCSAGISHNKVLAKLACGLNKPNRQTLVSHGSVPQLFSQMPIRKIRSLGGKLGASVIEILGIEYMGELTQFTESQLQSHFGEKNGSWLYAMCRGIEHDPVKPRQLPKTIGCSKNFPGKTALATREQVQWWLLQLAQELEERLTKDRNDNDRVATQLVVSIRVQGDKRLSSLRRCCALTRYDAHKMSHDAFTVIKNCNTSGIQTEWSPPLTMLFLCATKFSASAPSSSTDITSFLSSDPSSLPKVPVTSSEAKTQGSGPAVTATKKATTSLESFFQKAAERQKVKEASLSSLTAPTQAPMSNSPSKPSLPFQTSQSTGTEPFFKQKSLLLKQKQLNNSSVSSPQQNPWSNCKALPNSLPTEYPGCVPVCEGVSKLEESSKATPAEMDLAHNSQSMHASSASKSVLEVTQKATPNPSLLAAEDQVPCEKCGSLVPVWDMPEHMDYHFALELQKSFLQPHSSNPQVVSAVSHQGKRNPKSPLACTNKRPRPEGMQTLESFFKPLTH
localisation_or_trafficking [1]: no change | other: polyubiquitination [2]: decreases | other: replication fork progression, other: median fiber length [3]: no change, 12.07 vs 12.17 | other: CPD lesion bypass [4]: no change | other: translesion synthesis after cisplatin, other: % cells with >10 RPA2 foci [5]: increases, 33.4 vs 12.6 | other: replication fork progression, other: median fiber length [6]: decreases, 8.62 vs 10.65 | localisation_or_trafficking [7]: no change | other: polyubiquitination [8]: decreases | localisation_or_trafficking [9]: increases | other: CPD lesion bypass [10]: no change | localisation_or_trafficking [11]: increases | other: UV-induced mutation frequency [12]: increases | localisation_or_trafficking [13]: increases | other: site-specific ubiquitination [14]: decreases

B2: DNA polymerase η (Polη): T457A without OGT (protein)
parent chain: B1 parent chain
other: polyubiquitination ([15]; glycan lost): no change

B3: DNA polymerase η (Polη): T457A with GST-OGT co-expression (protein)
parent chain: B1 parent chain
other: polyubiquitination ([15]; glycan lost): no change

B4: DNA polymerase η (Polη): Polη-3A (protein)
parent chain: B1 parent chain
localisation_or_trafficking [7]: no change | localisation_or_trafficking [13]: increases

B5: DNA polymerase η (Polη): 3A (protein)
parent chain: B1 parent chain
other: polyubiquitination [8]: decreases

B6: DNA polymerase η (Polη): GST-OGT co-expression (WT) (protein)
parent chain: B1 parent chain
other: polyubiquitination ([15]; glycan gained): increases

B7: DNA polymerase η (Polη): Polη-5A (protein)
parent chain: B1 parent chain
localisation_or_trafficking [7]: no change | localisation_or_trafficking [13]: increases

B8: DNA polymerase η (Polη): T457D (protein)
parent chain: B1 parent chain
localisation_or_trafficking [13]: increases

B9: DNA polymerase η (Polη): 5A (protein)
parent chain: B1 parent chain
other: polyubiquitination [8]: decreases

B10: DNA polymerase η (Polη): T457E (protein)
parent chain: B1 parent chain
localisation_or_trafficking [13]: increases
